Measurements from the supplement of paper PMC9112550, “Optimization of the antimicrobial peptide Bac7 by deep mutational scanning” (BMC Biology, 2022).

Tested on: Escherichia coli TOP10
Experiment: shrunken log2 fold change of peptide-encoding DNA abundance (4.5 h post-induction vs induction); higher = less antimicrobial activity (less host growth inhibition)
Conditions: time post-induction: 4.5 h; library: site-saturation at positions 5, 18, 19, 20
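Further: peptides expressed intracellularly from a pBAD plasmid library in pooled LB shake-flask culture, induced with 0.3% L-arabinose, DNA abundance read by NGS, three biological replicates, DESeq2 with apeglm shrinkage.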

Sequence | shrunken log2 fold change
RRIRKRPPRLPRPRPRPITCPRP | 0.0162
RRIRKRPPRLPRPRPRPIYPPRP | -0.0542
RRIRKRPPRLPRPRPRPIYVPRP | 0.0461
RRIRKRPPRLPRPRPRPKAQPRP | 0.313
RRIRKRPPRLPRPRPRPKCMPRP | 0.15
RRIRKRPPRLPRPRPRPKEFPRP | 0.232
RRIRKRPPRLPRPRPRPKFAPRP | 0.764
RRIRKRPPRLPRPRPRPKFIPRP | -1.04
RRIRKRPPRLPRPRPRPKFRPRP | 0.00803
RRIRKRPPRLPRPRPRPKGPPRP | 0.828
RRIRKRPPRLPRPRPRPKIRPRP | 0.246
RRIRKRPPRLPRPRPRPKMIPRP | -0.0764
RRIRKRPPRLPRPRPRPKMTPRP | 0.187
RRIRKRPPRLPRPRPRPKMWPRP | 0.363
RRIRKRPPRLPRPRPRPKSNPRP | 0.112
RRIRKRPPRLPRPRPRPKTIPRP | 0.0745
RRIRKRPPRLPRPRPRPKVAPRP | 1.23
RRIRKRPPRLPRPRPRPKVEPRP | 0.0183
RRIRKRPPRLPRPRPRPKVQPRP | 0.092
RRIRKRPPRLPRPRPRPKVTPRP | 0.0261
RRIRKRPPRLPRPRPRPKVWPRP | 0.354
RRIRKRPPRLPRPRPRPKWIPRP | -0.111
RRIRKRPPRLPRPRPRPKYKPRP | -0.19
RRIRKRPPRLPRPRPRPLATPRP | 0.527
RRIRKRPPRLPRPRPRPLAVPRP | 0.0855

Sequence | shrunken log2 fold change
RRIRKRPPRLPRPRPRPLCNPRP | 1.06
RRIRKRPPRLPRPRPRPLEAPRP | 0.505
RRIRKRPPRLPRPRPRPLEIPRP | 0.281
RRIRKRPPRLPRPRPRPLEWPRP | -0.0047
RRIRKRPPRLPRPRPRPLFGPRP | 0.439
RRIRKRPPRLPRPRPRPLHMPRP | 0.102
RRIRKRPPRLPRPRPRPLIVPRP | -0.223
RRIRKRPPRLPRPRPRPLLHPRP | 0.108
RRIRKRPPRLPRPRPRPLLQPRP | 0.31
RRIRKRPPRLPRPRPRPLMNPRP | 0.158
RRIRKRPPRLPRPRPRPLMPPRP | 0.232
RRIRKRPPRLPRPRPRPLMWPRP | 0.284
RRIRKRPPRLPRPRPRPLMYPRP | -0.0706
RRIRKRPPRLPRPRPRPLNDPRP | -0.0546
RRIRKRPPRLPRPRPRPLNRPRP | -0.0492
RRIRKRPPRLPRPRPRPLPVPRP | 0.431
RRIRKRPPRLPRPRPRPLQTPRP | 0.182
RRIRKRPPRLPRPRPRPLRGPRP | 0.873
RRIRKRPPRLPRPRPRPLRLPRP | 1.16
RRIRKRPPRLPRPRPRPLSQPRP | 0.028
RRIRKRPPRLPRPRPRPLWEPRP | 0.163
RRIRKRPPRLPRPRPRPMALPRP | -0.00663
RRIRKRPPRLPRPRPRPMDIPRP | 0.0655
RRIRKRPPRLPRPRPRPMDPPRP | 0.115
RRIRKRPPRLPRPRPRPMEHPRP | -0.0568

Sequence | shrunken log2 fold change
RRIRKRPPRLPRPRPRPMFDPRP | 0.166
RRIRKRPPRLPRPRPRPMFFPRP | -0.14
RRIRKRPPRLPRPRPRPMGQPRP | 0.0265
RRIRKRPPRLPRPRPRPMHDPRP | 0.321
RRIRKRPPRLPRPRPRPMHFPRP | 0.0573
RRIRKRPPRLPRPRPRPMHGPRP | 0.272
RRIRKRPPRLPRPRPRPMIIPRP | -0.0318
RRIRKRPPRLPRPRPRPMLTPRP | 0.189
RRIRKRPPRLPRPRPRPMTAPRP | 0.832
RRIRKRPPRLPRPRPRPMTFPRP | -0.00803
RRIRKRPPRLPRPRPRPMVWPRP | 0.722
RRIRKRPPRLPRPRPRPMYIPRP | -0.0457
RRIRKRPPRLPRPRPRPMYQPRP | 0.056
RRIRKRPPRLPRPRPRPNASPRP | 0.236
RRIRKRPPRLPRPRPRPNCRPRP | 0.00408
RRIRKRPPRLPRPRPRPNEKPRP | 0.218
RRIRKRPPRLPRPRPRPNENPRP | 0.304
RRIRKRPPRLPRPRPRPNEQPRP | 0.11
RRIRKRPPRLPRPRPRPNFSPRP | -0.084
RRIRKRPPRLPRPRPRPNFVPRP | 0.309
RRIRKRPPRLPRPRPRPNGCPRP | -0.0163
RRIRKRPPRLPRPRPRPNGNPRP | -0.146
RRIRKRPPRLPRPRPRPNGQPRP | 0.203
RRIRKRPPRLPRPRPRPNGSPRP | 0.0677
RRIRKRPPRLPRPRPRPNHEPRP | -0.0766

Sequence | shrunken log2 fold change
RRIRKRPPRLPRPRPRPNHSPRP | -0.321
RRIRKRPPRLPRPRPRPNKIPRP | 0.0339
RRIRKRPPRLPRPRPRPNMCPRP | 0.0251
RRIRKRPPRLPRPRPRPNMGPRP | -0.215
RRIRKRPPRLPRPRPRPNMLPRP | -0.0107
RRIRKRPPRLPRPRPRPNMYPRP | -0.14
RRIRKRPPRLPRPRPRPNNKPRP | -0.162
RRIRKRPPRLPRPRPRPNNNPRP | -0.255
RRIRKRPPRLPRPRPRPNRVPRP | -0.00538
RRIRKRPPRLPRPRPRPNSPPRP | -0.027
RRIRKRPPRLPRPRPRPNSVPRP | 0.0305
RRIRKRPPRLPRPRPRPNVWPRP | 0.258
RRIRKRPPRLPRPRPRPNWFPRP | 0.188
RRIRKRPPRLPRPRPRPPAQPRP | 0.698
RRIRKRPPRLPRPRPRPPATPRP | 0.773
RRIRKRPPRLPRPRPRPPCGPRP | 0.614
RRIRKRPPRLPRPRPRPPCMPRP | -0.0208
RRIRKRPPRLPRPRPRPPDDPRP | 1.99
RRIRKRPPRLPRPRPRPPFEPRP | 0.143
RRIRKRPPRLPRPRPRPPFMPRP | 0.517
RRIRKRPPRLPRPRPRPPFPPRP | 0.582
RRIRKRPPRLPRPRPRPPHGPRP | 0.634
RRIRKRPPRLPRPRPRPPHNPRP | 0.465
RRIRKRPPRLPRPRPRPPLEPRP | 0.456
RRIRKRPPRLPRPRPRPPLRPRP | 0.708

Sequence | shrunken log2 fold change
RRIRKRPPRLPRPRPRPPNQPRP | 0.17
RRIRKRPPRLPRPRPRPPNTPRP | 0.408
RRIRKRPPRLPRPRPRPPPFPRP | 0.442
RRIRKRPPRLPRPRPRPPPNPRP | 0.982
RRIRKRPPRLPRPRPRPPRCPRP | 0.578
RRIRKRPPRLPRPRPRPPRHPRP | 1.04
RRIRKRPPRLPRPRPRPPSTPRP | 0.661
RRIRKRPPRLPRPRPRPPSYPRP | 0.667
RRIRKRPPRLPRPRPRPPTNPRP | 0.654
RRIRKRPPRLPRPRPRPPVLPRP | -0.0742
RRIRKRPPRLPRPRPRPPYAPRP | 0.424
RRIRKRPPRLPRPRPRPQDNPRP | -0.0637
RRIRKRPPRLPRPRPRPQGTPRP | -0.0539
RRIRKRPPRLPRPRPRPQHTPRP | 0.0113
RRIRKRPPRLPRPRPRPQIMPRP | -0.103
RRIRKRPPRLPRPRPRPQITPRP | -0.0657
RRIRKRPPRLPRPRPRPQMYPRP | -0.192
RRIRKRPPRLPRPRPRPQNCPRP | -0.132
RRIRKRPPRLPRPRPRPQNEPRP | -0.0827
RRIRKRPPRLPRPRPRPQPSPRP | 0.567
RRIRKRPPRLPRPRPRPQQKPRP | 0.206
RRIRKRPPRLPRPRPRPQRKPRP | 0.71
RRIRKRPPRLPRPRPRPQSQPRP | 0.249
RRIRKRPPRLPRPRPRPQTFPRP | 0.117
RRIRKRPPRLPRPRPRPQTRPRP | 0.358

Sequence | shrunken log2 fold change
RRIRKRPPRLPRPRPRPQVEPRP | 0.248
RRIRKRPPRLPRPRPRPQVKPRP | 0.0274
RRIRKRPPRLPRPRPRPQYYPRP | -0.359
RRIRKRPPRLPRPRPRPRDCPRP | 0.306
RRIRKRPPRLPRPRPRPRDMPRP | 0.0936
RRIRKRPPRLPRPRPRPRDTPRP | 0.258
RRIRKRPPRLPRPRPRPREHPRP | 0.0968
RRIRKRPPRLPRPRPRPREIPRP | 0.736
RRIRKRPPRLPRPRPRPRFLPRP | 0.101
RRIRKRPPRLPRPRPRPRIAPRP | 0.599
RRIRKRPPRLPRPRPRPRILPRP | 0.0416
RRIRKRPPRLPRPRPRPRINPRP | 0.0244
RRIRKRPPRLPRPRPRPRKKPRP | 0.381
RRIRKRPPRLPRPRPRPRKVPRP | 0.596
RRIRKRPPRLPRPRPRPRLEPRP | 0.782
RRIRKRPPRLPRPRPRPRLIPRP | 0.234
RRIRKRPPRLPRPRPRPRMKPRP | 0.346
RRIRKRPPRLPRPRPRPRNLPRP | 0.525
RRIRKRPPRLPRPRPRPRPKPRP | 1.03
RRIRKRPPRLPRPRPRPRQNPRP | 0.586
RRIRKRPPRLPRPRPRPRQPPRP | 0.467
RRIRKRPPRLPRPRPRPRRGPRP | 0.799
RRIRKRPPRLPRPRPRPRRPPRP | 0.544
RRIRKRPPRLPRPRPRPRRSPRP | 0.0846
RRIRKRPPRLPRPRPRPRSKPRP | 0.254
